These results are taken from PMC10786891, “Massively parallel profiling of RNA-targeting CRISPR-Cas13d”.

Sequences and labels used below:
B1: target 1 C6G,G17C (mixed)
RNA 1: CACCCGUGCAAAAAUGCAGGGGUCUAAAACUGAGCGGAUAACCUCUCUAUGG
RNA 2: GGGAAUGGAUCCACAUCUACGAAUUCGUACCAUACAGAGGUUAUCGGCUCACCGAGAUCGGAAGAGCACACGU
B2: target 1 U3C,A14C (mixed)
RNA 1: B1 RNA 1
RNA 2: B1 RNA 2 with C35G, A38C, G46C, U49C
B3: target 1 insA 3' of 7,insU 3' of 1 (mixed)
RNA 1: B1 RNA 1
RNA 2: GGGAAUGGAUCCACAUCUACGAAUUCGUACCAUAGAGAGGUUAUCACGCUCAUCCGAGAUCGGAAGAGCACACGU
B4: target 1 insU 3' of 20,insC 3' of 15 (mixed)
RNA 1: B1 RNA 1
RNA 2: GGGAAUGGAUCCACAUCUACGAAUUCGUACCAUUAGAGCAGGUUAUCCGCUCACCGAGAUCGGAAGAGCACACGU
B5: target 1 insG 3' of 9,insC 3' of 3 (mixed)
RNA 1: B1 RNA 1
RNA 2: B3 RNA 2 with U44G, C45U, A46C, A52C, U53A
B6: target 1 insG 3' of 16,insG 3' of 16 (mixed)
RNA 1: B1 RNA 1
RNA 2: B4 RNA 2 with U34A, A35G, G36A, A37G, C39G
B7: target 1 insU 3' of 18,insG 3' of 9 (mixed)
RNA 1: B1 RNA 1
RNA 2: B4 RNA 2 with U34A, A35U, C39A, A40G, G42U, U44A, A45G
B8: target 1 A1U,G12C (mixed)
RNA 1: B1 RNA 1
RNA 2: B1 RNA 2 with C35G, G40C, G46C, A51U
B9: target 1 A1U,C6U (mixed)
RNA 1: B1 RNA 1
RNA 2: B1 RNA 2 with C35G, G46U, A51U
B10: target 1 U8A,G13U (mixed)
RNA 1: B1 RNA 1
RNA 2: B1 RNA 2 with C35G, G39U, U44A, G46C
B11: target 1 insU 3' of 14,insC 3' of 10 (mixed)
RNA 1: B1 RNA 1
RNA 2: B4 RNA 2 with U34A, A35G, G36A, A37G, G38A, C39U, A40G, G42U, U44C
B12: target 1 insA 3' of 8,insG 3' of 7 (mixed)
RNA 1: B1 RNA 1
RNA 2: B3 RNA 2 with C45A, A46C, C47G, G48C, C49G, U50C, C51U, A52C, U53A
B13: target 1 insA 3' of 21,insA 3' of 12 (mixed)
RNA 1: B1 RNA 1
RNA 2: B4 RNA 2 with U33A, C39A, A40G, G42A
B14: target 1 insA 3' of 6 (mixed)
RNA 1: B1 RNA 1
RNA 2: GGGAAUGGAUCCACAUCUACGAAUUCGUACCAUAGAGAGGUUAUCCAGCUCACCGAGAUCGGAAGAGCACACGU
B15: target 1 insC 3' of 19,insC 3' of 5 (mixed)
RNA 1: B1 RNA 1
RNA 2: B4 RNA 2 with U34C, C39A, A40G, G42U, U44A, A45U, U46C, C48G, G49C
B16: target 1 G13U (mixed)
RNA 1: B1 RNA 1
RNA 2: B1 RNA 2 with C35G, G39U, G46C
B17: target 1 U11A,G12C (mixed)
RNA 1: B1 RNA 1
RNA 2: B1 RNA 2 with C35G, G40C, U41A, G46C
B18: target 1 insA 3' of 22,insG 3' of 22 (mixed)
RNA 1: B1 RNA 1
RNA 2: B4 RNA 2 with C31A, A32G, U33C, U34A, A35U, G36A, A37G, G38A, C39G
B19: target 1 A9G,A16G (mixed)
RNA 1: B1 RNA 1
RNA 2: B1 RNA 2 with C35G, A36G, A43G, G46C
B20: target 1 insA 3' of 19,insU 3' of 6 (mixed)
RNA 1: B1 RNA 1
RNA 2: B4 RNA 2 with U34A, C39A, A40G, G42U, U44A, A45U, U46C, C48U
B21: target 1 A1U,A20C (mixed)
RNA 1: B1 RNA 1
RNA 2: B1 RNA 2 with A32C, C35G, G46C, A51U
B22: target 1 insG 3' of 19,insC 3' of 9 (mixed)
RNA 1: B1 RNA 1
RNA 2: B4 RNA 2 with U34G, C39A, A40G, G42U, U44A, A45C
B23: target 1 insC 3' of 17,insA 3' of 17 (mixed)
RNA 1: B1 RNA 1
RNA 2: B4 RNA 2 with U34A, A35G, G36C, G38A, C39G
B24: target 1 A1U,G13U (mixed)
RNA 1: B1 RNA 1
RNA 2: B1 RNA 2 with C35G, G39U, G46C, A51U
B25: target 1 C7U,C21A (mixed)
RNA 1: B1 RNA 1
RNA 2: B1 RNA 2 with C31A, C35G, C45U, G46C
B26: target 1 insU 3' of 7,insA 3' of 7 (mixed)
RNA 1: B1 RNA 1
RNA 2: B3 RNA 2 with A46U, C47A, G48C, C49G, U50C, C51U, A52C, U53A
B27: target 1 insA 3' of 11,insG 3' of 7 (mixed)
RNA 1: B1 RNA 1
RNA 2: GGGAAUGGAUCCACAUCUACGAAUUCGUACCAUAGAGAGGUAUAUCGCGCUCACCGAGAUCGGAAGAGCACACGU
B28: target 1 A1G,G13U (mixed)
RNA 1: B1 RNA 1
RNA 2: B1 RNA 2 with C35G, G39U, G46C, A51G
B29: target 1 insG 3' of 21,insU 3' of 7 (mixed)
RNA 1: B1 RNA 1
RNA 2: B4 RNA 2 with A32G, U33A, C39A, A40G, G42U, U44A, A45U, U46C, C47U
B30: target 1 insU 3' of 20,insC 3' of 3 (mixed)
RNA 1: B1 RNA 1
RNA 2: GGGAAUGGAUCCACAUCUACGAAUUCGUACCAUUAGAGAGGUUAUCCGCUCCACCGAGAUCGGAAGAGCACACGU
B31: target 1 A1G,G12C (mixed)
RNA 1: B1 RNA 1
RNA 2: B1 RNA 2 with C35G, G40C, G46C, A51G
B32: target 1 insG 3' of 16,insG 3' of 10 (mixed)
RNA 1: B1 RNA 1
RNA 2: B27 RNA 2 with A38G, G39A, U41G, A42U, A44G, U45A, C46U, G47C

Where a chain is given by its changes, count along the chain named. Numbers in names are those of the source.

The data set addresses T1, EsCas13d, nuclease-dead (Eubacterium siraeum, UniProt B0MS50, R295A;H300A;R849A;H854A).
T1 sequence: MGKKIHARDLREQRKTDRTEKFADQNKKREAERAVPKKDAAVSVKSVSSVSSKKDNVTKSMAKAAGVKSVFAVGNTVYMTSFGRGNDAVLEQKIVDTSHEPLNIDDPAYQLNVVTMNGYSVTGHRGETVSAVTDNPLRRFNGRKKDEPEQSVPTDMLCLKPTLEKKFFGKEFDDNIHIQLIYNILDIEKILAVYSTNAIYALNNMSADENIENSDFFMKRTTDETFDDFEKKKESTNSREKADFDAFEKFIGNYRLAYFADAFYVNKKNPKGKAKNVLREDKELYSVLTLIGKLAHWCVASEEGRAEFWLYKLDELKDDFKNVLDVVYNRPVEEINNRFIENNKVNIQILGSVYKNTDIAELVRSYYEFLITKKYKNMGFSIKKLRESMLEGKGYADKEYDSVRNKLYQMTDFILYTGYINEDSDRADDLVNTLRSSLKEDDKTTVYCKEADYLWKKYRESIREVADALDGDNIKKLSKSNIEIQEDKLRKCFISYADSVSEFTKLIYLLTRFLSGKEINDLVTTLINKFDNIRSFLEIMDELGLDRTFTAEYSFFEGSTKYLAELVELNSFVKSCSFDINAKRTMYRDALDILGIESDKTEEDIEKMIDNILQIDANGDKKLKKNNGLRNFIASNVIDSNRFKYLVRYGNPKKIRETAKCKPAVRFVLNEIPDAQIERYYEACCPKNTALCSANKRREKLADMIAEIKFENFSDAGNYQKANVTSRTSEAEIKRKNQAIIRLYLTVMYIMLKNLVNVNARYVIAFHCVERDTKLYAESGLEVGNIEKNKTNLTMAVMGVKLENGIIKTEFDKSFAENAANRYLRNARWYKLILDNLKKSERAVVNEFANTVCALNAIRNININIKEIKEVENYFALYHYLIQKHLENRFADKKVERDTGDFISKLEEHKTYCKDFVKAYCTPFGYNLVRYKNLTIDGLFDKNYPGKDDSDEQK
In words: crRNA (strand 1, pre-loaded); Mg2+; 40 mM Tris-HCl pH 7.5, 150 mM NaCl, 6 mM MgCl2, 1 mM DTT, 0.1% Tween-20, 0.2 mg/ml BSA; 25 C; 10 min per concentration, then washed. As to conditions: tags: His6-TwinStrep-SUMO cleaved; N-terminal SNAP kept (SNAP-Surface 488); label: 3' end held by stalled T7 RNA polymerase.
For orientation: Kd means the free concentration of one partner at which half of the binding sites on the other are occupied at equilibrium, for simple one-to-one binding. Read a low Kd as a tighter complex. B1: the Kd is about 41 nM.

As for B2, the affinity, expressed as Kd, was 84 ± 18 nM.

As for B3, the Kd was 7.7 ± 0.5 nM. This Kd is about 11-fold lower than that of the molecule before.

B4 displayed a Kd of 28 ± 2.2 nM.

For B5, the Kd is 15.9 ± 0.9 nM.

Take B6: binding was put at a Kd of 22.5 ± 1.4 nM.

Turning to B7, the Kd turned out to be 67 ± 10 nM.

On to B8, for which the affinity, expressed as Kd, was 17.5 ± 1.7 nM. This Kd lies about 3.8-fold lower than the previous one.

On to B9, for which the Kd was 11.4 ± 0.9 nM.

With B10, binding was put at a Kd of 53 ± 8 nM.

B11: the Kd is 39 ± 10 nM.

For B12, binding was characterised by a dissociation constant (Kd) of 13.3 ± 0.8 nM.

B13 gave a Kd of 48 ± 5 nM.

B14 showed a Kd of 15 ± 1.3 nM.

Regarding B15, the Kd came out at 75 ± 21 nM.

Take B16: the affinity, expressed as Kd, was 34 ± 4 nM.

Consider B17, for which the Kd is 7.59 ± 0.28 nM.

For B18, binding was characterised by a dissociation constant (Kd) of 15.2 ± 0.9 nM.

Regarding B19, the Kd came to 37 ± 4 nM.

In the case of B20, the Kd turned out to be 22.9 ± 1.6 nM.

Consider B21, for which the Kd amounted to 36 ± 8 nM.

Turning to B22, the Kd was 78 ± 10 nM.

Molecule B23 returned a Kd of 20.3 ± 1.5 nM.

For the molecule B24, binding was put at a Kd of 49 ± 10 nM. Against the preceding molecule, the Kd is about 2.4-fold higher.

B25: binding was characterised by a dissociation constant (Kd) of 24.7 ± 2.5 nM.

The molecule B26 registered a Kd of 7.75 ± 0.3 nM.

The molecule B27 yielded a Kd of 16.7 ± 0.7 nM.

B28 yielded a dissociation constant Kd of 41 ± 7 nM.

B29 returned a Kd of 73 ± 9 nM.

In turn, B30 displayed a Kd of 12.9 ± 1.3 nM. Compared with the last molecule, the Kd is about 5.7-fold lower.

For B31, the Kd is 12.2 ± 0.9 nM.

As for B32, binding was characterised by a dissociation constant (Kd) of 31.2 ± 2.2 nM.
